Test results published in patent publication US5985836A, “Alpha-1 proteinase inhibitor binding peptides” (Bayer Corporation, priority 1998, dated 1999).
Ends that are not written are not given here.

Assays:
A1PI [1] = biological target: T1, A1PI (Homo sapiens, UniProt P01009); experiment: A1PI binding on peptide-resin column, injection of 1 mg A1PI in equilibration buffer; conditions: 1 mg A1PI in equilibration buffer
T1 construct: Human plasma is currently the only approved source of therapeutic AlPI
Procedure, shortened: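 Percent of total eluted A1PI per fraction (flowthrough, NaCl steps, 2% acetic acid) determined by A280 integration or immunonephelometry. Columns of peptide-derivatized A-Totda-Toyopearl resin (0.1 mmole/g) received 1 mg A1PI at 4 °C or 20 °C, flow 865 or 523 μl/min.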

A1PI [2] = biological target: T1, A1PI; experiment: A1PI purification from 5 mg hSA + 1 mg A1PI on peptide column, A1PI mass balance; type: binding; conditions: A1PI, 5 mg hSA + 1 mg A1PI; for Percent Eluted by Fraction, 1M NaCl / Percent Eluted by Fraction, 2% Ac. Acid / Percent Eluted by Fraction, 3M NaCl / Percent Eluted by Fraction, Flow: relative to total eluted
Procedure, shortened: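 Mass balance by immunonephelometry of fractions from step elutions (1M NaCl, 3M NaCl, 2% acetic acid, neutralised with Tris) at 865 μl/min. Sample was a mixture of 1 mg A1PI and 5 mg hSA held 10 min on peptide-derivatised Toyopearl columns (0.1 mmole/g) at 4 °C or 20 °C.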

A1PI [3] = biological target: T1, A1PI; experiment: Purification of A1PI from Effluent II+III on peptide column, A1PI mass balance; type: binding; conditions: A1PI, 1 ml Eff. II+III, 4° C.
Procedure, shortened: (§1)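 Run at 4° C: Effluent II+III (1 ml, 20% ethanol) loaded with a 10 min residence. Elution at 865 μl/min, in sequence 1M NaCl, 3M NaCl, 2% acetic acid; A1PI, IgA, IgG and haptoglobin accounted for in each fraction.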

[4] = biological target: T2, apolipoprotein alpha-1 (Apo A-1) (Homo sapiens, UniProt P02647); experiment: Purification from Effluent II+III, Apo A-1 mass balance; type: binding; conditions: 1 ml Eff. II+III, 4° C.
T2 construct: Eff; II+III is a process intermediate in the Cohn plasma fractionation process; tissue Bayer Corporation (Clayton, N.C.); host or cells: plasma fraction: Cohn Effluent II+III
Procedure, shortened: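 First, 1 ml of the ethanolic Cohn intermediate (20% ethanol, ~1 mg/ml A1PI) is injected and held for a 10 min residence time. Columns are then eluted stepwise at a constant 865 μl/min with 1M NaCl, 3M NaCl and finally 2% acetic acid, all at 4° C.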

Immunoglobulin A (IgA) = experiment: Purification from Effluent II+III, IgA mass balance; type: binding, human; conditions: 1 ml Eff. II+III, 4° C.
Procedure, shortened: as §1

Immunoglobulin G (IgG) = experiment: Purification from Effluent II+III, IgG mass balance; type: binding, human; conditions: 1 ml Eff. II+III, 4° C.
Procedure, shortened: as §1

A1PI [5] = biological target: T1, A1PI; experiment: A1PI yield from dialyzed (aqueous) Effluent II+III; type: binding; conditions: 4° C.
Experimental: Effluent II+III was dialyzed against equilibration buffer at 4° C. to remove the ethanol using a 15,000 molecular weight cut-off membrane. Nephelometry of the Eff. […] A portion of the identified sequences were assayed under the same conditions applied for neat Eff. II+III at 4° C. […] II+III compared to the neat, ethanol-containing feed. The binding strength differed for the aqueous feed as more AlPI eluted in 1M NaCl for the aqueous feed. The AlPI eluted in the 1M NaCl fractions was not as enriched as that eluted in the acid eluates.

A1PI [6] = biological target: T1, A1PI; experiment: Capture and elution of active A1PI with 2M urea buffer (elastase inhibition activity assay and immunonephelometry); type: binding; conditions: 4° C.
[7] = 20° C., * Below detection limit
[8] = * as in Tables 4, 5 (below detection limit)
[9] = 1 ml dialyzed Eff. II+III (ethanol removed)
[10] = A1PI, 1 ml dialyzed Eff. II+III

T1 sequence (P01009 25-418): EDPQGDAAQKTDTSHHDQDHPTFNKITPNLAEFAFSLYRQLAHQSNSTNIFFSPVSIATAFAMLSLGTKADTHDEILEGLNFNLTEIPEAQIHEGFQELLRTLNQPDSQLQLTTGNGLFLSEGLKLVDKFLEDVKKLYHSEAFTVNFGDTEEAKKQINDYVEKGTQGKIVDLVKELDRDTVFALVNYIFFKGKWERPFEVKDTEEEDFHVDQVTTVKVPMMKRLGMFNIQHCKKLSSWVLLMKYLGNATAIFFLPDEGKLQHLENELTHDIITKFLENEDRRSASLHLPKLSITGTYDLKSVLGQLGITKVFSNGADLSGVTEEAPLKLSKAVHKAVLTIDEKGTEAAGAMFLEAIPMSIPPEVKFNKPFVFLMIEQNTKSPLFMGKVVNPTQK
T2 sequence (P02647 19-267): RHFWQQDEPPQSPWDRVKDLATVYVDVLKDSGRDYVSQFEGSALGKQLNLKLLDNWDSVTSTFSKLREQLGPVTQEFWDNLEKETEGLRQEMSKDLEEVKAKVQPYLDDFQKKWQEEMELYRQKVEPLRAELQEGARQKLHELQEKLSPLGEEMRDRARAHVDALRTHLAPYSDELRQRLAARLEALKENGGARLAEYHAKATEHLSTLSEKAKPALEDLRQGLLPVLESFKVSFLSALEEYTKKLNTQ

Percent A1PI Eluted by Fraction Based on Absorbance at 280 nm, 1M NaCl (A1PI [1]; 4° C.): 40% | Percent A1PI Eluted by Fraction Based on Absorbance at 280 nm, 2% Acetic Acid (A1PI [1]; 4° C.): 60% | Percent A1PI Eluted by Fraction Based on Absorbance at 280 nm, Flowthrough (A1PI [1]; 4° C.): 0% | Percent A1PI Eluted by Fraction, 1M NaCl (A1PI [1]; 20° C.): 35% | Percent A1PI Eluted by Fraction, 2% Acetic Acid (A1PI [1]; 20° C.): 65% | Percent A1PI Eluted by Fraction, Flowthrough (A1PI [1]; 20° C.): 0% | Mass Protein per Eluate Fraction, 1M NaCl (A1PI [2]; 4° C., * Below detection limit): 0.27 mg | Mass Protein per Eluate Fraction, 2% Ac. Acid (A1PI [2]; 4° C., * Below detection limit): 0.71 mg | Percent Eluted by Fraction, 1M NaCl (A1PI [2]; 4° C.): 28% | Percent Eluted by Fraction, 2% Ac. Acid (A1PI [2]; 4° C.): 72% | Percent Eluted by Fraction, 3M NaCl (A1PI [2]; 4° C.): 0% | Percent Eluted by Fraction, Flow (A1PI [2]; 4° C.): 0% | Mass Protein per Eluate Fraction, 1M NaCl (A1PI [2]; [7]): 0.21 mg | Mass Protein per Eluate Fraction, 2% Ac. Acid (A1PI [2]; [7]): 0.50 mg | Mass Protein per Eluate Fraction, Flow (A1PI [2]; [7]): 0.22 mg | Percent Eluted by Fraction, 1M NaCl (A1PI [2]; 20° C.): 23% | Percent Eluted by Fraction, 2% Ac. Acid (A1PI [2]; 20° C.): 53% | Percent Eluted by Fraction, 3M NaCl (A1PI [2]; 20° C.): 0% | Percent Eluted by Fraction, Flow (A1PI [2]; 20° C.): 24% | Percent Eluted by Fraction, 1M NaCl (A1PI [3]): 9% | Percent Eluted by Fraction, 2% Acetic Acid (A1PI [3]): 66% | Percent Eluted by Fraction, 3M NaCl (A1PI [3]): 0% | Percent Eluted by Fraction, Flow (A1PI [3]): 25% | Mass Protein per Eluate Fraction, 1M NaCl (A1PI [3]; [8]): 0.07 mg | Mass Protein per Eluate Fraction, 2% Acetic Acid (A1PI [3]; [8]): 0.50 mg | Mass Protein per Eluate Fraction, Flow (A1PI [3]; [8]): 0.19 mg | Percent Eluted by Fraction, 1M NaCl [4]: 0% | Percent Eluted by Fraction, 2% Acetic Acid [4]: 100% | Percent Eluted by Fraction, 3M NaCl [4]: 0% | Percent Eluted by Fraction, Flow [4]: 0% | Mass Protein per Eluate Fraction, 2% Acetic Acid [4, 8]: 0.39 mg | Mass A1PI per Eluate Fraction, 1M NaCl (A1PI [5]; [9]): 0.15 mg | Mass A1PI per Eluate Fraction, 2% Acetic Acid (A1PI [5]; [9]): 0.25 mg | Mass A1PI per Eluate Fraction, Flowthrough (A1PI [5]; [9]): 0.21 mg | Percent Eluted by Fraction, 1M NaCl (A1PI [5]; [10]): 24% | Percent Eluted by Fraction, 2% Acetic Acid (A1PI [5]; [10]): 41% | Percent Eluted by Fraction, Flowthrough (A1PI [5]; [10]): 35% | Mass A1PI in Urea Eluate (mg), Activity (A1PI [6]; 1 mg A1PI, eluted with 2M urea, pH 6, elastase inhibition activity assay): 0.67 mg | Mass A1PI in Urea Eluate (mg), Nephelometry (A1PI [6]; 1 mg A1PI, eluted with 2M urea, pH 6, immunonephelometry): 0.79 mg | Specific Activity (A1PI [6]; mass of A1PI by activity assay relative to immunonephelometry, urea eluate): 0.86 mg/mg
Substance: RYRIFI
Percent Eluted by Fraction, 1M NaCl (Immunoglobulin A (IgA)): 17% | Percent Eluted by Fraction, 2% Acetic Acid (Immunoglobulin A (IgA)): 60% | Percent Eluted by Fraction, 3M NaCl (Immunoglobulin A (IgA)): 0% | Percent Eluted by Fraction, Flow (Immunoglobulin A (IgA)): 22% | Mass Protein per Eluate Fraction, 1M NaCl (Immunoglobulin A (IgA); [8]): 0.06 mg | Mass Protein per Eluate Fraction, 2% Acetic Acid (Immunoglobulin A (IgA); [8]): 0.23 mg | Mass Protein per Eluate Fraction, Flow (Immunoglobulin A (IgA); [8]): 0.08 mg | Percent Eluted by Fraction, 1M NaCl (Immunoglobulin G (IgG)): 0% | Percent Eluted by Fraction, 2% Acetic Acid (Immunoglobulin G (IgG)): 0% | Percent Eluted by Fraction, 3M NaCl (Immunoglobulin G (IgG)): 0% | Percent Eluted by Fraction, Flow (Immunoglobulin G (IgG)): 100% | Mass Protein per Eluate Fraction, Flow (Immunoglobulin G (IgG); [8]): 0.24 mg
